{"source": "the DeepSol protein solubility set"}
{"test": "soluble on expression in E. coli; label from the status in PepcDB or PDB records"}
{"sequence": "MGEENQPNYTISQENWSLHRKGYDDQQRHQEKVQEAIKNNLPDLVTEESIVMSNGKDVVKIPIRSLDEYKIRYNYDKNKHVGQGNGDSKVGDVVARDGSGGQKQKGPGKGQGAGDAAGEDYYEAEVSILELEQAFFRELELPNLKRKEMDENRIEHVEFNDIRKTGLWGNIDKKRTMISAYKRNAMGGKASFHPIHQEDLKFRTWNEVLKPDSKAVVLAMMDTSGSMGIWEKYMARSFFFWMTRFLRTKYETVDIEFIAHHTEAKVVTEEEFFSKGESGGTICSSVYKKALELIDNKYSPDRYNIYPFHFSDGDNLTSDNARCVKLVEELMKKCNMFGYGEVNQYNRHSTLMSAYKNIKDENFRYYILKQKADVFHAMKSFFREESGEKMALEHHHHHH", "soluble on expression in E. coli": "soluble"}
{"sequence": "MRCPYCQYEDTQVKDSRPSEEGTVIRRRRICSVCGGRFTTFERVQLRELLVLKKSGRYEPFDRDKLMRSVEIAVRKRGIDPDYIERVISGIVRQLESLGEPEISSEKIGLLVMKALKSIDDIAYIRFASVYRDFRNASDFHDVIEELSKGITDTESCFDE", "soluble on expression in E. coli": "not soluble"}
{"sequence": "MSLAGVSVGTVDRVIHNRGRVSEENRKKVQTILEMVHYQPNLMARSLASKKQYHFVAITPSFTHGEYWEAISDGIDKAASEMESYNITITKLFFDQYNNKTFDDIVRNLLDEKVDGVLIATLFTDSVIRLSQELDRNEIPYVYVDSNIEGQHQLAYFGTESYDAGVIAARLLTDKISSTSDILMARIIHSGKNDSNQGKNRREGFCHYLKETGFTGNLHEVELKINDSVYNFIKLDEIFEANATIEGGIIFNSTCYILGNYLKARGMQKVKLVGYDLIERNTQLLSDGVITALVAQRPERQGYDGIKSLCNHLLFKQNPEKVNLMPIDILLKENLKYYLNNKEGHHHHHH", "soluble on expression in E. coli": "soluble"}
{"sequence": "MVGGVEELSIEQLASSISTYKEQLEQNFVCGLEFRIGEEKLNVRQLLSEDPRNSEYADMEKELKEVIALTEEVLATAKQNEISLSDAGVSAEATPGSPDLEGAWEKTGLRNDPIHEGKFPVGTKVQAVFSDDGEWYDATIEAHTANGYFVAYDEWGNKEEVDPDNVRPIEQNAIVEAERLAQATKNALKRKIEKAASSDYQTKTLPAKLKIDPNDPEDVKIAKRKKIHAFKSKARFEQLEVVQNKKQNDWQQFQTTKAKTKKVGFFTGRKKESIFKSPEDPFGKVGVTGSGKGLTDFQKREKHLHLKSGNAEGTDE", "soluble on expression in E. coli": "soluble"}
{"sequence": "MHEVVTISVSQRANHLTTQFFNIQEGYLQLSKEQQVNDSKIFLNSVVDKVSKTISYAPRALLWDARTGNGSLGTYQYSESQDYHFGNEDKFKEQTVIKTHPRIPKSEYQSSLDAGAPLPCLNRENTMYWSDYSKLIYGPSSFNILRNWYHDTENPNQPDFQNLGERKFDRYSIGYDEFTENYLQEFFDGNLHRELEKCDTLQGFNLVSDMESGWGGFSSALLVELRNELPKKAVFSWGHNEDDPFTDDFPMKRLSKKWLPIISNKLRSTINMMQESDLYFPLYAAPGLTNWETAGKSCRIFDSINATISQSNLEQRKTMDYLTTAITLGYSSRNMVTGMVIGDTDYSFCSRVLPFKNSHKPNSTHIFSKSFIDRGNQTHKHHSEPDSRSKMIEMYTHRYFPSDTIPTEFSNDREFVLELESSEKNRDIFKHWNEFVVRYFKNDSDREELKNELSDYASAYESGWYEDEDSGDDDM", "soluble on expression in E. coli": "not soluble"}
{"sequence": "QRSYERDFPHHDRICIVKTHGTRQSQEGDKPEELDFSQVSGGVAPAIQEEIPGVELATRTTLYGTSKMILEDNKTYETKTLLAEPAFLDMFGVELIAGVRDSALRDNMTCLISESLARKMGGDVLGKRLRPAESKSDRAITIGGVFEDLPHNSSIQADMLLPITWMPAESLNNWIGNDRYIAYVRLRPGVSPESLDEALLEMQKRHQDMEVFRKAGVELHYSLTPFNRLRLEDPTLVNMLRIQQ", "soluble on expression in E. coli": "soluble"}
{"sequence": "MLTVALLALLCASASGNAIQARSSSYSGEYGSGGGKRFSHSGNQLDGPITALRVRVNTYYIVGLQVRYGKVWSDYVGGRNGDLEEIFLHPGESVIQVSGKYKWYLKKLVFVTDKGRYLSFGKDSGTSFNAVPLHPNTVLRFISGRSGSLIDAIGLHWDVYPTSCSRC", "soluble on expression in E. coli": "soluble"}
{"sequence": "MGTMRIAFQGTAGAYSEEALLKVFPEAKPVGFPTFHQVFEAVEAGEAELGVVPVENTTAGSINQTYDLLLESDLHVVGEIVHRVEHCLLAPKGTTLKDLHAVKSHPQALAQCDGFLARMRLTPIPVFDTAGAAKELAEHPEPGLAAIASRRAAELYGLEVLAENIEDYPHNYTRFFVIGHKEPPRGQGPYKTSIVFAVRHRPGGLLEALSVFAEAGVNLTKLESRPRRDKPFSYLFYLDLEGHLEDPGPAQALLRLLRRVAFLKVLGSYPAHANGGVSAP", "soluble on expression in E. coli": "soluble"}
{"sequence": "MSLGDLLTFATGHKYYGINFDEDERGWYYREWAPEAYEVYLTGDFNDWDRRSHPLTRNEFGVWQIFLPYDLYQKRFVHKSKIKVQIVGANGTHDRIPAYITRVVQDTETTDFSGQLWFPQKPFEWTDRDFNLRKIKNPIIYEAHVGMAQEKEGVGTYREFADKIVPRIRQMGYNSIQLMAVMEHPYYGSFGYHVSNFFAPSSRFGTPEDLKYLVDRAHKFGLAVIMDVVHSHAVKNLSEGLNEFDGSDHQYFHPGDRGYHTGWDSKLFDYGKLEVKRFLLSNLRYWLEEYHFDGFRFDGVTSMLYFDHGMKTFDSYDTYFKGGVDFDAVTYLQLANEVTHRYLKDSITIAEDVSGMPGLSRSIRDGGVGFDYRLAMGIPDFWIKYLKHLQDEQWNIYEMWSTLTNRRYKEKTIAYAESHDQAMVGDKTIAFWLMDKEMYFHMQVDDPNPVIDRGIAIHKLLRLFTFALGGEGYLNFMGNEFGHPEWIDFPREGNGWSYQYARRQWSLVDNPKLKYQYLGAFDEAMMRLVRKTRLLAAEPAQQLNMDDHNKVIIFERNNMIFVFNFSVSNSVFDYKFKSFAPGTFEIVLNSDDTRFGGHGRVDDTLEYHTNTEGQLSIYTPNRSVLVFQRKEASEGHHHHHH", "soluble on expression in E. coli": "not soluble"}
{"sequence": "RRRPLSCDAASQAGSNYPRCWNCGGPWGPGREDRFFCPQCRALQAPDPTRDYFSLMDCNRSFRVDTAKLQHRYQQLQRLVHPDFFSQRSQTEKDFSEKHSTLVNDAYKTLLAPLSRGLYLLKLHGIEIPERTDYEMDRQFLIEIMEINEKLAEAESEAAMKEIESIVKAKQKEFTDNVSSAFEQDDFEEAKEILTKMRYFSNIEEKIKLKKIPL", "soluble on expression in E. coli": "not soluble"}
{"sequence": "GAMGSEESLKHATRIIDEVVSKFLDDLGNAKSHLMSLYSACSSEVPPGPVDQKFQSIVIGCALEDQKKIKRRLETLLRNIDNSDKAIK", "soluble on expression in E. coli": "soluble"}
{"sequence": "MGSDKIHHHHHHMEGKKTTQEEYQKCVNAVVDYINLHLGEEIDLKSLARISHFSPFYFHRIMKAFLGEPIGTFIVRTRTEAAARLLRYSSTSISDIAYRIGYASPSSFSKIFKQMYGISPTEYRNNKNYVIMKPAIIKPDLELKKEIRELPQRNVIYIRLFGDYKLNDYAGTWMHLIQFVKEQNLPMGDPSPLCIYHDDPKVTPTDKLRTDVCMLLPSNARPKGNVGFKQLPAGRYATFLYKGSYDQLQAVYDTIYGKYLPEMECTLSDEPSAERYLNDPSCTPPEELLTEIYIPIR", "soluble on expression in E. coli": "not soluble"}
{"sequence": "MYFVDRKKLEETLSYMEQMLDRYKAEERWDEPLRQLALERIAHIVIEAVLDVGNAMIDGFIMRDPGSYNDIIDILADEQVISPADADRLKAFIAHRKMLVHEYARVDHAKLLADLNEHLPALEAYPKAVRAYLENELGPVSAFRN", "soluble on expression in E. coli": "soluble"}
{"sequence": "MRGLMLRSFSAGYSTQPVIADLNVPLLPRGKITILLGPNGCGKSTLLRSLAGLNNADGEALLDGEDLMSLSFAERAQKVVFLPQSLPQGVHLHVLESIIVVLRASGGRDNAQGRAQILAILEQLGITHLALQYLDQLSGGQRQLVGLAQSLIRRPELLLLDEPLSALDLNYQFHVMDLVRRDTQAQNRVTIVVAHDINIALRHGDHVLMLKDGRLVASGAPETVITAERLAEVYRVRGRVERCSQGKLQVVLDGVIAV", "soluble on expression in E. coli": "not soluble"}
{"sequence": "MGSDKIHHHHHHMSSLINDIHAEDVANYLNRNREFFHVFPNLLNELSIPHPKSGHEVSLLERQVFQLREQRDSLQVEVDTLKDIAGENGALLHKVYDLSYALLAAESEQEAVNVVYDVMHDVFTVEEVTIISWEVPKSSVHGVNQLGISQAWSQSLKETLQPGKPVCGLLEDSWQKGLFHTDKAMQSVCVIPLGQQRVWGALALGATTDRFSPELGTYFLKVMGQMVTARLQRLF", "soluble on expression in E. coli": "not soluble"}
{"sequence": "MIVAIIDGYTDEPAGLGVPPYLGLYPRYAYGAIKKARRDANIFYLTIDDLRATFEGEQGIKTKNKTPNFPKVKEILEKAEVIVFIGGLHTPGKYLSAVPGSVEEVSKFISHYNGVKVLGGPAFMGSAKIGGVKVTTKELRFAEEVFDYVVYGDIEAFLFDYFSGRELDPFRFRDYEELQPYALLGAEVVKQFPGYPEFVLIEIETQRGCPKAMGIGGCSFCTEPVRYRVVENRPQEYVAQEVKVFYNLGIRHFRIGRQSCIFSYMAKPNGRVPIPNPEEVEKLFKAVRLAAPNVKTLHVDNANPAVIANYPEESKRIAKAIIRYGTPGNVVAFGLETADPKVARINNLNATPEETYEAVKIINEVGGKRGYNGLPWLLPGINIIFGLPGETKRTYELTYEFLKKILDDGLMVRRINIRQVVVFPGTPLWNMRDKVKTEKHKKLIEHYRHKIRHEIDLPMLKRIVPVGTILRDVRAEIYDGELTFGRQFGSYPLIVGIPKRVELDRYYDVMIVDHGLRSVTGIPVPIDVNGESSKVLRWLPGIGKKTLARILAKRPFKSEEEFLSLLPEDVKKMYKGKIKV", "soluble on expression in E. coli": "soluble"}
{"sequence": "MEFAKMCFEKLYGVDTSEAKEMYNSVYDVMKAMLKEYTVIFKGPNTQSSQSNPPSSTAARDIFACELAEDSNVEFERMDRSYKEMVNEIRVTDPKDELDIYLKAEVENPKTLPGMEWDVLSWWRLNSQKYPVLSEIARDVLAMQVSYVASESAFSTSGRLLEPSRSCLTHYMVETLVCLEQWLKSEIKLSENTFLTNTQLLADIELLDKLEKGNFIYVVY", "soluble on expression in E. coli": "soluble"}
{"sequence": "MGSDKIHHHHHHDGKFTLGAGVGVVEHPYKQYDADVYPVPVISYESENFWFHGLGGGYYLWNDTNDKLSITAYWSPMYFKPGDSDSEQMRRLDKRKSTVMAGLSYVHNTPYGFLRTTIAGDTLDNSNGINWDLAWLYRYTNGNLTLTPGIGVEWNSDNQNEYYYGVSRHESRRSGMRSYDPDSSWNPYLELSANYRFLGDWSVYGVARYTRLSDEITDSPMVDKSWSGLISTGITYTF", "soluble on expression in E. coli": "not soluble"}
{"sequence": "MAGGFGVGKTTFVGAVSEIAPLSTEELLTTVGAATDNLDGIENKVETTVAMDFGRITLDPEHVLYLFGTPGQQRFWFMWDELSEGALGAVILADTRRLEDCFAAVDFFEQRGLAFIVAINDFDGGYRYDPAEVRAAIDLDPHIPVVRCDARISSSGVQTLLTLVRHLLAHAPATAPSHGAHTLEHHHHHH", "soluble on expression in E. coli": "not soluble"}
{"sequence": "MTVYHFVGIKGTGMSPLAQILHDNGYTVQGSDIEKFIFTQTALEKRNITILPFSAENIKPGMTVIAGNAFPDTHPEIEKAMSEGIPVIRYHKFLGDYMKKFTSVAVTGAHGKTSTTGLLAHVIQNAKPTSFLIGDGTGQGNENSEYFVFEACEYRRHFLSYQPDYAIMTNIDFDHPDYFSSIDDVFDAFQEMALQVNKGIIACGDDEHLPKIHANVPVVYYGTGEENDFQARNIVKSTEGTTFDVFVRNTFYDTFYIPAYGHHNVLNSLAVIALCHYEEIDSSIIKHALKSFGGVKRRFNEKQLGDQVLIDDYAHHPTEIKVTIEAARQKYPDREIVAVFQPHTFTRTQQFLDEFAESLSGADCVYLCDIFGSARENAGKLTIGDLQGKIHNAKLIEEDDTSVLKAHDKAVLIFMGAGDIQKYMRAYENVMA", "soluble on expression in E. coli": "not soluble"}
{"sequence": "MGFSKKSQFEGGLESDGKKWVIAGISIRASLKPVKTKLRAPPEIVTEVEEDCYNEEEECSTTPTAKETKIPELLECPPAPRKRRPALKCRSNVVREFFTPPSDLETVFLRRR", "soluble on expression in E. coli": "not soluble"}
